# Assay results as given in the RNAGym collection of RNA variant scans (doi:10.7554/elife.80360).
# B1: HDV Ribozyme (parent)
# chain: GGCCGGCAUGGUCCCAGCCUCCUCGCUGGCGCCGGCUGGGCAACAUUCCGAGGGGACCGUCCCCUCGGUAAUGGCGAAUGGGACCCA
# Variants of: B1
# Test: self-cleavage, relative activity (ratio to wild type); higher = more cleavage; co-transcriptional
row,Variant,self-cleavage
1,U47C C63U,1.07
2,U46C G67A,0.671
3,U46C A56G,0.643
4,A45C G80C,0.0504
5,A45U G53C,0.778
6,U46G G53A,0.527
7,C44U C48A,0.779
8,U46C G55U,0.831
9,C44G A77U,0.0978
10,U47A G53A,1.22
11,U47A C63G,0.653
12,U47A C63A,0.96
13,A45G C85U,1.06
14,C44G A71U,0.962
15,U46A C61U,0.61
16,C44U G81A,0.224
17,A45U C49U,0.706
18,C44G G68C,0.475
19,U46A U69A,1.08
20,U46A U69G,0.793
21,A45U G81A,0.259
22,A45C A51U,0.72
23,C44A U69A,0.727
24,C44A U69C,0.677

row,Variant,self-cleavage
1,C44G G81C,0.306
2,U47A G50U,1.18
3,U47A G50C,0.855
4,A45U G50U,0.793
5,U47A G80A,0.277
6,U46A G52U,0.596
7,U46A G52A,0.776
8,A45U C84A,0.446
9,U47A G59C,1.11
10,C44U C57A,0.672
11,C44A G55U,0.698
12,U46G G67A,0.527
13,C44G U46A,0.9
14,A45G G53A,0.991
15,A45C A83C,0.0615
16,A45C A83U,0.356
17,A45G G82U,0.475
18,U46C U65A,0.853
19,A45U G76U,0.652
20,U46C U60C,0.772
21,A45C U46A,0.499
22,U46A C84G,0.68
23,U47C A83G,0.612
24,A45G G59A,1.06

row,Variant,self-cleavage
1,A45C C64G,0.649
2,U47A C75G,0.172
3,U47C A51G,0.969
4,C44U U47A,0.743
5,C44G C63G,0.441
6,A45C G73U,0.193
7,A45C G73A,0.528
8,A45C C58A,0.519
9,A45C C58U,0.831
10,U46C G81U,0.302
11,A45G U60G,1.31
12,U46C C66G,0.594
13,A45U G68A,0.712
14,A45G G81A,0.435
15,C44U G80A,0.125
16,C44U G80U,0.148
17,U46A C85U,0.675
18,C44U C58U,0.755
19,C44U A45U,0.787
20,U46C C64A,0.569
21,A45U C58A,0.539
22,A45C C85G,0.609
23,C44G C64U,0.686
24,C44G G80U,0.0966

row,Variant,self-cleavage
1,U46C G53U,0.831
2,U46G G74U,0.529
3,U46C C48U,0.655
4,A45G G52C,1.01
5,A45G G52A,0.875
6,A45G C63U,0.956
7,A45G C63G,0.739
8,U46C U69A,0.918
9,U46C U69G,1.08
10,U47A C48A,0.973
11,A45G C66U,0.92
12,A45G C66A,0.812
13,A45G C66G,0.811
14,C44A C66U,0.809
15,U46C C85U,0.615
16,U46C C85A,0.617
17,U46C C85G,0.675
18,A45U A78U,0.155
19,A45G A56C,1.3
20,U46G G82A,0.161
21,U46A G81U,0.271
22,A45G U47G,0.767
23,C44U A77G,0.923
24,U46G G52A,0.297

row,Variant,self-cleavage
1,U46A U79C,0.215
2,C44G G55A,0.787
3,U46G G73C,0.499
4,U47A C49U,0.972
5,U46G C48G,0.475
6,A45G C57G,1.01
7,U46G U72G,0.623
8,U47A U60C,0.88
9,U46C C63U,0.671
10,U46C C63A,0.718
11,U46A G76U,0.954
12,C44G U79A,0.388
13,A45U C57A,0.906
14,C44A G74C,0.237
15,A45C G67C,0.731
16,C44G C58G,0.665
17,A45G A87U,0.911
18,A45G U65C,1.01
19,C44U U79G,0.727
20,U46G U69C,0.582
21,U46A U60G,0.939
22,U46A U60C,0.752
23,U46A U47C,0.532
24,U46A U47A,0.867

row,Variant,self-cleavage
1,U46A A83C,0.323
2,U46A A83G,0.378
3,U46A A83U,0.277
4,C44G A51G,0.653
5,A45C C48G,0.369
6,A45C A70C,0.615
7,A45C A70U,0.508
8,A45C A70G,0.655
9,A45C G68U,0.604
10,U47C A78U,0.277
11,U46G A56G,0.499
12,U46G A56U,0.917
13,A45U C66A,0.812
14,A45U C66U,1.02
15,A45U C66G,0.919
16,U46A G59A,0.78
17,C44U U60C,0.872
18,A45G C58A,1.18
19,U46C G74C,0.277
20,U46A G67A,0.703
21,U47A G82U,0.142
22,U47A G82A,0.298
23,A45G G80U,0.151
24,C44U G67C,0.755

row,Variant,self-cleavage
1,C44G G50A,0.657
2,C44A G82C,0.0773
3,C44A G82A,0.153
4,C44G C66G,0.554
5,U47A U72A,0.748
6,U47A U72G,0.665
7,C44A G81C,0.178
8,C44A G81A,0.125
9,U47A A56G,0.965
10,U47A C57U,0.944
11,C44G A70U,0.804
12,U46A G82U,0.119
13,U46A G53A,0.741
14,U46A G53C,0.877
15,A45C A56C,0.712
16,C44U G53C,0.658
17,C44U G53U,0.831
18,U46C C61A,1.09
19,A45U U60G,0.643
20,A45C A87G,0.554
21,U46A C75U,0.0665
22,U46A C75A,0.151
23,C44A G68A,0.704
24,U46C A87G,0.727

row,Variant,self-cleavage
1,C44A C57U,0.582
2,A45G G76U,1.12
3,U46C U47A,1.08
4,U46C U47C,0.743
5,U46A G74A,0.519
6,U46C G50U,0.779
7,U46A C86A,0.958
8,A45C U47C,0.598
9,U46A G68C,0.633
10,A45U G80A,0.205
11,U47A C61U,0.814
12,U47A C61A,0.886
13,U47A C62G,0.54
14,A45C C62U,0.895
15,C44A A78C,0.0811
16,A45U A70C,0.95
17,U47A G81A,0.341
18,U46C C58U,0.7
19,U47A U79C,0.312
20,U47A U79A,0.598
21,A45G A51U,0.944
22,C44G G53C,0.733
23,A45G U46G,0.643
24,C44A C58U,0.689

row,Variant,self-cleavage
1,A45U U72A,0.831
2,U47C C64A,0.567
3,U47C C64G,0.511
4,C44U C75U,0.157
5,C44U C75G,0.106
6,A45C A77U,0.142
7,A45C A77G,0.534
8,U46G C57G,0.804
9,U46C G54A,0.519
10,U47A G54A,0.95
11,C44U C62U,0.443
12,A45U A83G,0.847
13,U46G A83G,0.746
14,C44U A56U,0.748
15,C44A U60G,0.554
16,C44A U60A,0.867
17,U46C G52A,1.03
18,U47A G68C,0.982
19,C44U A78C,0.113
20,C44G G52A,0.636
21,C44G G52U,0.727
22,U46G A78G,0.443
23,C44U U69A,0.787
24,C44U U69C,0.814

row,Variant,self-cleavage
1,C44A G52C,0.902
2,U46C A83G,0.402
3,U47A A71G,1.03
4,U46C G76U,1.23
5,U47A C86A,1.04
6,U47A C86G,0.733
7,U47A C86U,0.88
8,A45G U69G,1.21
9,A45G U69C,0.72
10,A45G C62A,0.975
11,C44U C63U,0.806
12,U46C C49A,0.54
13,C44U G76C,0.725
14,C44U G76A,0.87
15,C44U C85G,0.673
16,A45U G54A,0.939
17,C44U U72C,0.779
18,C44G G73C,0.655
19,U47A U65C,0.8
20,U47C C48A,0.875
21,U47C C48U,0.597
22,A45U G74U,0.305
23,U46G G68A,0.608
24,C44A C85A,0.656

row,Variant,self-cleavage
1,C44A C85U,0.727
2,U46A A87C,0.744
3,C44A G67U,0.658
4,C44A G67A,0.415
5,A45C G76U,1.01
6,U46G A51U,0.45
7,A45U U79G,0.506
8,U47A C85G,0.665
9,C44U G73A,0.946
10,U46C C86U,0.697
11,U46A C58A,0.57
12,U46A C58U,0.482
13,C44U C66A,0.677
14,C44U C66G,0.895
15,U46G G59C,0.831
16,C44A C86U,1.01
17,C44A C86A,1.08
18,A45C G74A,0.354
19,A45C G74C,0.0594
20,U46G C75A,0.208
21,U46G C75G,0.0639
22,C44A C48A,0.88
23,U46C U79A,0.798
24,U47C C66A,0.875

row,Variant,self-cleavage
1,A45G G50A,0.707
2,U46C G68C,0.739
3,A45U C64G,0.671
4,U47C A71G,1.13
5,U47C A71U,1.11
6,U46A C63U,0.763
7,U46A C63A,0.499
8,U47A A77G,0.831
9,U46G A87C,0.966
10,U46G A87U,0.67
11,A45C C61G,0.6
12,A45G G74A,0.517
13,A45G G74C,0.332
14,U47A U69G,1.13
15,U47A U69A,1.02
16,C44G U65G,0.688
17,C44G U65C,0.597
18,A45U C85G,0.847
19,C44A A87G,0.649
20,C44G G67C,0.755
21,U46A G54U,0.684
22,A45U A87U,0.734
23,A45U A87G,0.737
24,U46C G73U,0.151

row,Variant,self-cleavage
1,U46C G73A,0.475
2,U46G C49U,0.8
3,U46G C49G,0.465
4,U47C A77G,0.612
5,C44A U65G,0.85
6,C44A U65C,0.804
7,C44U C84U,0.516
8,U46G U79G,0.787
9,U46G U79C,0.0519
10,U47C A70C,0.739
11,C44U A87C,0.618
12,A45G G54C,0.65
13,A45G A83G,0.95
14,U46G C58A,0.639
15,U46G C58U,0.532
16,A45C G50C,0.504
17,C44G C49G,0.68
18,A45C U72A,0.89
19,A45C U72G,1.11
20,U46G G55U,0.569
21,C44A U46G,0.785
22,C44A U46A,0.677
23,A45G C86U,0.806
24,C44A C63A,0.882

row,Variant,self-cleavage
1,U46G G80A,0.0811
2,A45U G55U,0.698
3,A45U G55C,0.956
4,U46C C57A,1.22
5,U46A A71U,0.95
6,U46A A71C,1.11
7,C44A U79G,0.128
8,U46G C62G,0.0755
9,C44U G54U,0.799
10,C44U G54C,0.694
11,C44G A78U,0.19
12,C44A G76C,0.614
13,C44A G76U,0.767
14,C44G G59A,0.636
15,U47A C84G,0.831
16,U47A C84U,0.735
17,U46A C66U,0.743
18,A45C U79C,0.0791
19,A45C U79G,0.293
20,A45U C61G,0.815
21,U46G U65C,0.615
22,U46A A78C,0.131
